According to PMC4551922, “Nucleic acid-binding specificity of human FUS protein”:
Like-named read-outs stand apart in the source and are kept apart here.

Tests used:
MBP-FUS [1] = target: T1, MBP-FUS (human, UniProt P35637 1-526); assay: EMSA; conditions: EMSA: 50 mM Tris-HCl pH 7.4, 150 mM KCl, 2 mM MgCl2, 2 mM DTT, 0.1 mg/ml yeast tRNA, 0.1 mg/ml BSA, room temperature, 30 min, trace 32P-RNA
[2] = tested on: MS2 coat protein (bacteriophage MS2?); conditions: EMSA: 50 mM Tris-HCl pH 7.4, 150 mM KCl, 2 mM MgCl2, 2 mM DTT, 0.1 mg/ml yeast tRNA, 0.1 mg/ml BSA, room temperature, 30 min, trace 32P-RNA
[3] = tested on: MS2 coat protein (bacteriophage MS2?); conditions: EMSA: 50 mM Tris-HCl pH 7.4, 150 mM KCl, 2 mM MgCl2, 2 mM DTT, 0.1 mg/ml yeast tRNA, 0.1 mg/ml BSA, room temperature, 30 min, trace 32P-RNA; remark: listed apart in the source
MBP-FUS [4] = target: T1, MBP-FUS; assay: EMSA; weaker than full prD; similar to 3'prD; EMSA: 50 mM Tris-HCl pH 7.4, 150 mM KCl, 2 mM MgCl2, 2 mM DTT, 0.1 mg/ml yeast tRNA, 0.1 mg/ml BSA, room temperature, 30 min, trace 32P-RNA; conditions: protein: recombinant; tags: N-terminal His6-MBP (not cleaved); label: 32P
MBP-FUS [5] = target: T1, MBP-FUS; assay: EMSA; EMSA: 50 mM Tris-HCl pH 7.4, 150 mM KCl, 2 mM MgCl2, 2 mM DTT, 0.1 mg/ml yeast tRNA, 0.1 mg/ml BSA, room temperature, 30 min, trace 32P-RNA; conditions: protein: recombinant, tags: N-terminal His6-MBP (not cleaved)
MBP-FUS [6] = target: T1, MBP-FUS; assay: competition; cold ssDNA vs labeled prD ssRNA; EMSA: 50 mM Tris-HCl pH 7.4, 150 mM KCl, 2 mM MgCl2, 2 mM DTT, 0.1 mg/ml yeast tRNA, 0.1 mg/ml BSA, room temperature, 30 min, trace 32P-RNA; conditions: protein: recombinant; tags: N-terminal His6-MBP (not cleaved); chain copies: 4; label: 32P
MBP-LC-RRM = MBP-LC-RRM (human, UniProt P35637 1-384); assay: EMSA; EMSA: 50 mM Tris-HCl pH 7.4, 150 mM KCl, 2 mM MgCl2, 2 mM DTT, 0.1 mg/ml yeast tRNA, 0.1 mg/ml BSA, room temperature, 30 min, trace 32P-RNA; conditions: protein: recombinant, tags: N-terminal MBP, label: 32P
MBP-LC-RRM, sequence (P35637 1-384): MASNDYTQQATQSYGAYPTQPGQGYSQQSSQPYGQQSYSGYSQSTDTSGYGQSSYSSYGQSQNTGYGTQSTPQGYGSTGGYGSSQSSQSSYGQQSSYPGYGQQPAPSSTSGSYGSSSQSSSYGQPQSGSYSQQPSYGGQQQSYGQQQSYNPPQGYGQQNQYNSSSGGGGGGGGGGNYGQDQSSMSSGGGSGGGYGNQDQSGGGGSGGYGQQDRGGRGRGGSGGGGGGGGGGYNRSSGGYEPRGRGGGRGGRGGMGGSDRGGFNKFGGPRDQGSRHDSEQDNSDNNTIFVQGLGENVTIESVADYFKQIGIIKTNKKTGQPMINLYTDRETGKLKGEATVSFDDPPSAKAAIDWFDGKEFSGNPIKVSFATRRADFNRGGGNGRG

MBP-RGG-Znf-RGG = MBP-RGG-Znf-RGG (human, UniProt P35637 385-526); assay: as above; conditions: protein: recombinant, tags: N-terminal MBP, label: 32P
MBP-RGG-Znf-RGG, sequence (P35637 385-526): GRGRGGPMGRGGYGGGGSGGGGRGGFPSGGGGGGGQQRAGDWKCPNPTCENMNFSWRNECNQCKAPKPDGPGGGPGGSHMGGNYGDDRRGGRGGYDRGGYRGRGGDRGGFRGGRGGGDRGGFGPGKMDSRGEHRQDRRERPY

MBP-FUS [7] = target: T1, MBP-FUS; assay: EMSA; weaker than full prD; similar to 5'prD; EMSA: 50 mM Tris-HCl pH 7.4, 150 mM KCl, 2 mM MgCl2, 2 mM DTT, 0.1 mg/ml yeast tRNA, 0.1 mg/ml BSA, room temperature, 30 min, trace 32P-RNA; conditions: protein: recombinant; tags: N-terminal His6-MBP (not cleaved); label: 32P
[8] = chain copies: 4, label: 32P, blunt

T1 sequence (P35637 whole entry): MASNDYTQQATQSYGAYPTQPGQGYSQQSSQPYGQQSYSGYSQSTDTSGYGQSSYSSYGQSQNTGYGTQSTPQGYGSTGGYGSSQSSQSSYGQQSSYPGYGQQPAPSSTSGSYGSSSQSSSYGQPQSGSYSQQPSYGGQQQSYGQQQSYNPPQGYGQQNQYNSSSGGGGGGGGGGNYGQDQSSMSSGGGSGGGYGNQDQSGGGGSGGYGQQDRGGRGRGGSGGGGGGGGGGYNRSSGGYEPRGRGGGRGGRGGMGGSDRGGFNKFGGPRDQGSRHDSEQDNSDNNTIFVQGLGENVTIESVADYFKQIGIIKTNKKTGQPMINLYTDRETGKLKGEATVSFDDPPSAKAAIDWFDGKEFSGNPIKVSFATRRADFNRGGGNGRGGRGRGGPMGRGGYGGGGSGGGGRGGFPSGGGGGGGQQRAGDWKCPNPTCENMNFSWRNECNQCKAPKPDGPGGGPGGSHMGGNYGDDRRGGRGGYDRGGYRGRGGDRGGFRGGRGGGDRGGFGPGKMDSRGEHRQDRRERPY

## TERRA
MBP-FUS [1]
  Kd: 116 nM

## MS2 motif 21 nt
[2]
  Kd: 10 nM

## MBP 1-200
MBP-FUS [1]
  Kd: 56 nM

## MBP 1-100 MS2
[3]
  Kd: 100 nM

## AUUGAGGAGCAGCAGAGAAGUUGG (ssRNA) [5'prD]
MBP-FUS [4]
  binding result: binds

## AGGGTTAGTGTTAGTGTTAGGG (ssDNA) [Htelo DNA neg]
MBP-FUS [5]; label: 32P
  Kd: 690 ± 48 nM

## CAACUUAGGUGGUUGAUUUGA (ssRNA) [GUGGU]
MBP-FUS [5]; label: 32P
  Kd: 980 ± 42 nM

## GGGAGACCAAAACUGAAGAAGGUAA (ssRNA) [MBP 1-20]
MBP-FUS [5]; label: 32P
  binding result: binds

## UUGUAUUUUGAGCUAGUUUGGUGAC (ssRNA) [GGUG]
MBP-FUS [5]
  Kd: 600 ± 20 nM

## AGGUCUCAGUUCAUCGCGCGAGGUUAUAGU (ssRNA) [CGCGC]
MBP-FUS [5]; label: 32P
  Kd: 290 ± 13 nM

## ATTGAGGAGCAGCAGAGAAGTTGGAGTGAAGGCAGAGAGGGGTTAAGG (ssDNA) [prD ssDNA]
MBP-FUS [6]
  binding signal: 10 fold more than ssRNA
MBP-LC-RRM
  Kd: 220 ± 32 nM
MBP-FUS [5]; chain copies: 4, label: 32P
  Kd: 280 ± 26 nM
MBP-RGG-Znf-RGG
  Kd: 290 ± 29 nM

B1: prD dsDNA (dsDNA)
DNA 1: ATTGAGGAGCAGCAGAGAAGTTGGAGTGAAGGCAGAGAGGGGTTAAGG
DNA 2: CCTTAACCCCTCTCTGCCTTCACTCCAACTTCTCTGCTGCTCCTCAAT
MBP-LC-RRM; blunt
  Kd: 1400 ± 170 nM
MBP-FUS [5]; [8]
  Kd: 1200 ± 110 nM
MBP-RGG-Znf-RGG; blunt
  Kd: 1000 ± 81 nM

## AGUGAAGGCAGAGAGGGGUUAAGG (ssRNA) [3'prD]
MBP-FUS [7]
  binding result: binds

## GAUUUAUCUUUAACUACUCAAGAUACUGAACAUGACA (structured_RNA) [Stem-loop]
MBP-FUS [5]; label: 32P, hairpin
  Kd: 430 ± 28 nM

## GAUUUAUCUUUAACUACUCUAUCUUCUGAACAUGACA (ssRNA) [Stem-loop neg]
MBP-FUS [5]; label: 32P
  Kd: 460 ± 39 nM

## GGGAGACCAAAACUG (ssRNA) [MBP 1-10]
MBP-FUS [5]; label: 32P
  binding result: no binding

## UUGUAUUUUGAGCUAGUUUCCUCAC (ssRNA) [GGUG neg]
MBP-FUS [5]; label: 32P
  Kd: 840 ± 50 nM

## CCUUAACCCCUCUCUGCCUUCACUCCAACUUCUCUGCUGCUCCUCAAU (ssRNA) [As-prD RNA]
MBP-LC-RRM
  Kd: 280 ± 22 nM
MBP-FUS [5]; label: 32P
  Kd: 79 ± 4 nM
MBP-RGG-Znf-RGG
  Kd: 260 ± 32 nM

B2: prD dsRNA (dsRNA)
RNA 1: AUUGAGGAGCAGCAGAGAAGUUGGAGUGAAGGCAGAGAGGGGUUAAGG
RNA 2: CCUUAACCCCUCUCUGCCUUCACUCCAACUUCUCUGCUGCUCCUCAAU
MBP-LC-RRM; blunt
  Kd: 2100 ± 60 nM
MBP-FUS [5]; [8]
  Kd: 350 ± 38 nM
MBP-RGG-Znf-RGG; blunt
  Kd: 1100 ± 80 nM

B3: prD DNA/RNA hybrid (DNA:RNA)
DNA: B1 DNA 1
RNA: B2 RNA 2
MBP-LC-RRM; blunt
  Kd: 1200 ± 250 nM
MBP-FUS [5]; [8]
  Kd: 980 ± 100 nM
MBP-RGG-Znf-RGG; blunt
  Kd: 1100 ± 110 nM

## AAAAAAAAAAAAAAAAAAAAAAAA (ssRNA) [polyA 24-mer]
MBP-FUS [5]; label: 32P
  Kd: 846 nM

## AUUGAGGAGCAGCAGAGAAGUUGGAGUGAAGGCAGAGAGGGGUUAAGG (ssRNA) [prD RNA]
MBP-LC-RRM
  Kd: 60 ± 3 nM
MBP-FUS [5]; label: 32P
  Kd: 97 ± 2 nM
MBP-RGG-Znf-RGG
  Kd: 81 ± 2 nM

## AGGGTTAGGGTTAGGGTTAGGG (structured_DNA) [Htelo DNA]
MBP-FUS [5]; label: 32P
  Kd: 730 ± 38 nM
